The values that follow are results of earlier work, collected in paper PMC9238359.

Common to all, as to experiment: ITC
On the technique in general: In ITC the heat of successive injections is recorded.

The target of one series is STX4 N-terminal peptide (UniProt Q12846).
A further series has as its target STX4 soluble (lacks TMD) (UniProt Q12846).
Series [1] has as its target STX4 soluble lacking N-terminal peptide (UniProt Q12846).

pKd: −log10 of the molar value.

What is called pKd is the Kd on a negative log10 scale, so that one unit is a factor of ten. Consider Munc18c (from UniProt O00186), for which the pKd with STX4 N-terminal peptide was 5.82; with STX4 soluble (lacks TMD), 7.92; in series [1], 6.13.
